Experimental findings from the nanobody polyreactivity screen of Harvey et al. (2022) are described below.

This data set can be described thus: yeast display, Sf9 membrane polyspecificity reagent, FACS + sequencing; frameworks hold sequencing errors. In short, it runs like this:
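Nanobodies from a synthetic yeast display library (Saccharomyces cerevisiae BJ5465), induced 36–48 hours with galactose, were stained 1 hour at 4 °C with 10% biotinylated, detergent-solubilized Sf9 membrane reagent, enriched on streptavidin microbeads, then FACS-sorted. Anti-HA (expression) and streptavidin (reagent binding) fluorescence set low and high (top ~1%) gates. Polyreactivity labels come from the gate of origin. Genes were colony-PCR amplified, MiSeq 2 × 250 sequenced and filtered by CDR length.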
As for “QVQLVESGGGLVQAGGSLRLSCASSGRTFGINAMGWYRQAPGKERELVAVISFGDGGTYYADSVKGRFTISRDNAKNTVYLQMNSLNPEDSAVYYCATDYQSTSVWGGHFVINPYDYWGQGTQVTVSS”, the “polyreactivity (PSR sort gate)” value was “low polyreactivity”.

In the case of “QVQLVESGGGLVQAGGSLRLSCAASGIIFGTYAMGWYRQAPGKERELVASISSRGGSTYYADTVKGRFTISRDNAKNTVYLQMNSLKPEDTAVYYCAARNAYPGNSMDSWGLGTQVTVSS”, the “polyreactivity (PSR sort gate)” value is “high polyreactivity”.

On to “QVQLVESGGGLVQAGGSLRLSCAASGSTFVPNAMGWYRQAPGKERELVADITSGGITNYADSVKGRFTISRDNAKNTVYLQMISLNPEDTGVYYCAVLYYILAPGYDYWGQGTLVTVSS”, for which the “polyreactivity (PSR sort gate)” value was “low polyreactivity”.

With “QVQLVESGGGLVQAGGSLRLSCAASGSTFDYYALGWYRQAPGKETELVAAISRSGVRTYYADSVKGRFTISRDNAKNTVYLQMNSLKPEDTAVYYCAAQVIPKFDWGQGTQVTVSS”, the “polyreactivity (PSR sort gate)” value is given as “high polyreactivity”.

Consider “QVQLVESGGGLVQAGGSLRLSCAASGRILGSYAMGWYRQAPGKERELVAAISSGARTNYADSVKGRFTISRDHAKNTVYLQMNCLKPEDTAVYYCAAATYNQDYSYDYWGQGTQVTVSS”, for which the “polyreactivity (PSR sort gate)” value is listed as “low polyreactivity”.

For the sequence “QVQLVESGGGLVQAGGSLRLSCAASGSIFRWNAMGWSRQAPGKERELVAAITWDGGRTYYADSVKGRFTISRDNAKNTVYLQMNSLKPEDTAVYYCNADNARGRSGVRRYYWGQGTQVTVSS”, the “polyreactivity (PSR sort gate)” value was “high polyreactivity”.

Regarding “QVQLVESGGGIVQAGGSLRLSCAASGFIIGYNAKGWYRQAPGKETELVAAITSRGVRTYYADCVKWRFTISRDNAKNTVYLQMNSLKPEDTAVYYCAKASRGYRSPYGSIGYYYWGQGTQVTVSS”, the “polyreactivity (PSR sort gate)” value was “high polyreactivity”.

Take “QVQLVESGGGLVQAGGSLRLSCAASGLIFIQYAMGWYRQAPGKEREFVAAISWSGTSTHYADSVKGRFTISRDNAKNTVYFQMNSLKPEDTAVYYCAAAKTGRGRGTTGYGYWGQGTLVTVSS”: the “polyreactivity (PSR sort gate)” value is “high polyreactivity”.

Turning to “QVQLVESGGGLVQAGGSLRLSCAASGRIIGFYAMGRYRQAPGKERELFAAINTGGGTNYADSVKGRFTISRDNAKNTVYLQMNSLKPEDTAVYYCAARTYDYRARHKVGYWGQGTQVTVSS”, the “polyreactivity (PSR sort gate)” value is “high polyreactivity”.

For “QVQLVETGGGLVQAGGSLRLSCAASGGIIRVYVMGWYIQAPGKERELVAAISRRGGSTYYADSVKGRFTISRDNAKNTVYLKMNSLKPEDTAVYYCAAYSTGTEFDYWGQGTQVSVSS”, the “polyreactivity (PSR sort gate)” value is recorded as “high polyreactivity”.

Consider “QVQLVESGGGLVQSGGSLRLSCADSVRTFNYYAMGWYRQAPGKERELVATISWSGVSTRYADSVKGRFTISRDNEKNTVYLQMNSLKPEDTAVYYCNAGYSKRSFYSAYGYWGQGTQVTVSS”, for which the “polyreactivity (PSR sort gate)” value was “high polyreactivity”.

Regarding “QVQLVESGGGLVQAGGSLRLICAASGFTFGEYAMGWYRKAPGKERELVAGISWSGGGTYYADSVKGRFTISRDTAKNTVYLQMNCLKPEDTAVYYCAKAGYYFFQQWQVDYWGQGTQVTVSS”, the “polyreactivity (PSR sort gate)” value is listed as “low polyreactivity”.

“QDQLVESGGGLVQAGGSLRLSCAASGSIFIQYAMGWYRQAPGKERQFVAAITSGGGSTYYADSVKGRFTISRDNAMNTVYLQLNSLKPEDTAVYYCAVDRTRRPALPFVTLDRGYWGQGTQVTVSS”: the “polyreactivity (PSR sort gate)” value was “low polyreactivity”.

Turning to “QVQLVESGGGLVPAGGSLRLSCAASGFTLYRYVMGWYRQAPGKERELVAAITRGGNTNYADSVKGRFTISRDNAKKTVYLQKNSLKPEDTAVYDCARRYRDYGRYGYWGQGTQVTVSS”, the “polyreactivity (PSR sort gate)” value is “high polyreactivity”.

Turning to “QVQLVESGGGLVQAGGSLRLSCAASGFTFKFYAMGWYRQAPGKERELVAAISARGGITYYADSVKGRFTISRDNAKNTVYLQMNSLKPEDTAVYYCAAGVFGHYAFVEFDYWGQGTQVTVSS”, the “polyreactivity (PSR sort gate)” value is “high polyreactivity”.

As to “QVQLVESGGGLVQAGGSLRLSCAASGSIFRRYAMGWYRQAPGKERELVATITSTDSTNYADSVKGRFTISRDNAKNTVYLQMNSLKPEDTAVYYCAKRPYHYRRNSEYYYWGQGTQVTVSS”, the “polyreactivity (PSR sort gate)” value was “low polyreactivity”.

Regarding “QVQLVESGGGLVQAGGSLRLSCAASGGTFTRYAMGWYRQAPGKEREFVAAITFSGGSTYYADSVKGRFTISRDNAKNTVYLQMNSLKPEDTAVYYCAVRERSTYRYYYWGQGTQVTVSS”, the “polyreactivity (PSR sort gate)” value is “high polyreactivity”.

Turning to “QVQLVESGGGLVQAGGSLRISCAASGSTFLYNNMGWYRQAPGKERELVAAITWSGGNTYYADSVKGRFTISRDNAKNTVYLQMNSLKPEDTAVYYCNAVWYPPKRKCFDYWGQGTQVTVSS”, the “polyreactivity (PSR sort gate)” value is “low polyreactivity”.

Take “QVQLVESGGGLVQAGGSLRLSCAASGRTFTSYAMGSYRQAPGKERELVAVITRRGGSTSYADSVKGRFTISRDNAKNTVYLQMNSLKPEDTAVYYCAAKRTWPDVNYYYWGQGTQVTVSS”: the “polyreactivity (PSR sort gate)” value was “high polyreactivity”.

For the sequence “QVQLVESGGGLVQAGGSLRLSCAASGGIFSTYTMGWYRQAPGKERELVAAISQSGGTTYYADSVKGRFTISRDNAKNTVYLQMNSLKPEDTAVYYCAAEPTQADYDYWGQGTQVTVSS”, the “polyreactivity (PSR sort gate)” value is given as “low polyreactivity”.

“QVQLVESGGGLVQAGGSLRLSCAASGRTLSRNAMGWSRQAPGKEREFVAAISSRGTSTYYADSVKGRFTISRDNAKNTVYLQMNSLKPEDTAVYYCATTLGGNYGYDYWGQGTQVTVSS”: the “polyreactivity (PSR sort gate)” value was “high polyreactivity”.

Take “QVQLVESGGGLVQAGGSLRLSCAASGFIFIKYAMGWYRQAPGKERELLAASSFRGGRTYYADSVKGRFTISRDNAKNTVYLQMNSLNPEETAVYYCAAETRDYSEGYYWGQGTQVTVSS”: the “polyreactivity (PSR sort gate)” value is on record as “high polyreactivity”.

As for “QVQLVESGGGLVQAGGSLRLSCAASGYNFLRNAMGWYRQAPGKERELVAAISYSGGGTYYADSVKGRFTISRDNAKNTVYLQMNSLKPEDTAVYYCNVAQRYYGNFWSESIEYDYWGLGTQVTVSS”, the “polyreactivity (PSR sort gate)” value is given as “low polyreactivity”.

Consider “QVQLVESGGGLVQAGGSLRLSCAASGLTFVYNTMGWYSQAPGKERELVAAISSSGGTTYYADSVKGRFTISRDTAKNTVYLQMNSLKPEDTAVYYCAARPSGGYESTRTRDYWGQGTHVTVSS”, for which the “polyreactivity (PSR sort gate)” value is reported as “low polyreactivity”.

“QVQLVESGGGLVQAGGILRLSCAASGRIFKYNAMGWYRQAPGKERELVAVITSGGSTYYADSVKGRFTISRDNAKNTVYLQMNSLKPEDTAVYYCAKKYYKVHKFDYCGQGTQVTVSS”: the “polyreactivity (PSR sort gate)” value was “low polyreactivity”.

Consider “QVQLVESGGGLVQAGGSLSLICAASGSTITYNAMGWYRQAPGKETELVAAIDWDGDTTYYADSVKGRFTISRDNAKNTVYLQMNSLKPEDTAVYYCAAEFYSLGKAIYEYWGQGTQVTVSS”, for which the “polyreactivity (PSR sort gate)” value is listed as “high polyreactivity”.

In the case of “QVQLVESGGGLVQAGGSLRLSCAASGFTFALYAMGWYRQAPGKERELVASISWSGGSTYYADSVKGRFTISRDNAKNTVYLQMNSLKPEDTAVYYCAACGRYYGGAYTRYYYWGQGTQVTVSS”, the “polyreactivity (PSR sort gate)” value is reported as “high polyreactivity”.

For the sequence “QVQLVESGGRLVQAGGSLRLSSAASGRTFRTYALGWYRQAPGTEREFVAAISRRSGITYYADSVKGRFTISRDNAKNTVYLQMNSLKPEDTAVYYCAATGYTGYSRYYYWGQGTQVTVSS”, the “polyreactivity (PSR sort gate)” value was “high polyreactivity”.

For “QVQLVESRGGLVQAGGSLRLSCAASGRIFYGYAMGGYRQAPGKERELVAGISKRGGTTRYADSVKGRFTISRDNAKNTVYLQMNSLKPEETAVSSCAAESFGLYASPGEEYWGQGTQVTVSS”, the “polyreactivity (PSR sort gate)” value was “high polyreactivity”.

Take “QVQLVESGGGLVQAGGSLRLSCAASGSIFYGNTMGWYRQAPGKERELVAAIDYRGDSTYYADSVKGRFTISRDNAKNTVYLQMNSLKPEDTAVYYCAADQTPFGQVYYGTLSIRDYWGQGTQVTVSS”: the “polyreactivity (PSR sort gate)” value is reported as “low polyreactivity”.

As for “QVQLVESGGGLVQAGGSLRLSCAASGRIFGYAMGWCRQAPRKERELVAAITSSGGRTYYADSVKGRFTISRDNAKNTVYLQMNSLKPEDTAVYYCAKKWPVYRSYDYWGQGTQVTVSS”, the “polyreactivity (PSR sort gate)” value is “high polyreactivity”.

As to “QVQLVESGGGLVQAGGSLRLSCAASGSIFSIYAMGWYRQAPGKERELVASITRSSGRTYYADSVKGRFTISRDNAKNTVYLQMNSLKPEDTAVYYCNAVWNTFISGRSYDYWGQGTQVTVSS”, the “polyreactivity (PSR sort gate)” value is “low polyreactivity”.

“QVQLVESGGGLVQAGGSLSLTCAASGSSFWPYAMGWYRQAPGKELELVAASTTRDGSTYYADSVKGRFTISRDNAKNTVYLQMISLKTEDTAVYYSAAVVLRDGWWGYYYWGQGTQVTVSS”: the “polyreactivity (PSR sort gate)” value was “high polyreactivity”.

For the sequence “QLQLVESGGGVVQAGGSLRLSCAASGGIFDRYAMGCDRQAPGKERELVAAITSGGSTNYADSVKGRFTISRDNAKNTVYLQMNSLQPEDTAVYYCNADLGILSGVAEGPTFREYDYWGQGTQVTVSS”, the “polyreactivity (PSR sort gate)” value is “low polyreactivity”.

“QVQLVESGGGLVQAGGSLRLSCAASGSIIVYYAMGWYRQAPGKERELVAAIRVRGGSTYYADSVKGRFTISRDTAKNTVYLQMNSLKPEDTAVYYCATAGRYGRYRTNAYRSKYDYWGQGTQVTVSS”: the “polyreactivity (PSR sort gate)” value is given as “high polyreactivity”.

With “QVQLQECGGGLVQAGGSLRLTCAASGNIFHADIMGWYRQAPGKERELVARVTDGGSTNYADSVKGRLTISRDNAKNTVYLQMNSLKPEETAVYYCAAIVYPVILTYFDYDYDYFYWGQGTQVTVGS”, the “polyreactivity (PSR sort gate)” value is on record as “low polyreactivity”.

On to “QVQLVESGGGLVQAGGSLRLSCAASGFTIVPYAMGWYRQAPGNERELVAAISRRGSRTYYADSVKGRFTISRDNAKNTVYLQMNSLKAEDTAVYYCAAKLSAVKAAYDYWGQGTQVTVSS”, for which the “polyreactivity (PSR sort gate)” value is listed as “high polyreactivity”.

With “QVQLVESGGGLVQAGGSLRLSCAASGFIIGSYAMGWYRQAPGKERELVAAISRRTTNTYYADSVKGRFTISRDNAKNTVYLQMNSLKPEDTAVYYCARVTWYESDYWGQGTQVTVSS”, the “polyreactivity (PSR sort gate)” value was “high polyreactivity”.

Consider “QVQLVESGGGLVQAGGSLRLSCAASGRTFRYYDMGWYRQAPGKEREFVAAITWRGGSTYYADSVKGRFTISRDNAKNTVYLQMNSLKPEDTAVYYCATDSLRLYGGKRDLYYWGQGTQVTVSS”, for which the “polyreactivity (PSR sort gate)” value is “low polyreactivity”.

Take “QVQLVESGRCLVQAGCSLRLSCAASGYTFSRSAMGWYRQAPGKERELVAAISWSGGSTYYADSVKGRFTISRDNAKNTVYLQMNSLKPEDTAVYYCIKVRYVSQTAFYYWGQGTQVTVSS”: the “polyreactivity (PSR sort gate)” value was “high polyreactivity”.
